From paper PMC12784346, “Paratope mapping of tilvestamab, an anti-AXL function-blocking antibody, using high-throughput bacterial expression of secreted scFv-osmY fusion proteins” (Bioscience Reports, 2025)

Target: T1, AXL Ig1 domain fused to human Fc (Homo sapiens, UniProt P30530)
T1 construct: AXL receptor tyrosine kinase, human, Ig1 domain of the extracellular domain; Construct limits and production are in the Supplementary Information; also called AXL Ig1-Fc; AXL-Ig1-Fc
Experiment: BLI; Octet RED96; His-tagged scFv-osmY captured on Ni-NTA tips from undiluted bacterial supernatant (600 s); AXL Ig1 domain Fc 5.6 ug/ml in kinetic buffer (0.02% Tween 20, 0.05% sodium azide, 0.1% BSA in PBS) as analyte; rat Axl-Fc as control; traces scored by eye (normal, fast, very fast, weak, weak fast, none)
Settings: one partner purified

binding result | Binder
binds | parental tilvestamab scFv-osmY fusion protein (scFv, V domains shown, VH of tilvestamab (BGB149); numbers count on: the scFv-osmY fusion protein; linker between VH and VL, adapted from the vector pOPE101; VL of tilvestamab (BGB149); About 52 kDa; vector pET-22b(+); also called parental scFv-osmY; parental scFv; source: E. coli T7 expression strain, secreted, culture supernatant used directly; not shown: His6, C-terminal, kept) VH: EVQLVESGGGLVQPGGSLRLSCAASGYSFTDFYINWVRQAPGKGLEWVARIFPGGDNTYYNEKFKGRFTLSADTSKSTAYLQMNSLRAEDTAVYYCARRGLYYAMDYWGQGTLVTVSS VL: DIQMTQSPSSLSASVGDRVTITCRSSQSLVHSNGIPYLHWYQQKPGKAPKLLIYRVSNRFSGVPSRFSGSGSGTDFTLTISSLQPEDFATYYCSQGTHVPPTFGQGTKVEIK
binds | tilvestamab scFv-osmY N195A (scFv, V domains shown, VH of tilvestamab, as the VH of m1; linker; VL of tilvestamab, as the VL of m1; numbers count on: the scFv-osmY fusion protein; source: E. coli T7 expression strain, secreted, culture supernatant used directly; not shown: His6, C-terminal, kept) VH: EVQLVESGGGLVQPGGSLRLSCAASGYSFTDFYINWVRQAPGKGLEWVARIFPGGDNTYYNEKFKGRFTLSADTSKSTAYLQMNSLRAEDTAVYYCARRGLYYAMDYWGQGTLVTVSS VL: DIQMTQSPSSLSASVGDRVTITCRSSQSLVHSNGIPYLHWYQQKPGKAPKLLIYRVSARFSGVPSRFSGSGSGTDFTLTISSLQPEDFATYYCSQGTHVPPTFGQGTKVEIK
binds | tilvestamab scFv-osmY D32A (scFv, V domains shown, VH of tilvestamab, as the VH of m1; numbers count on: the scFv-osmY fusion protein; linker; VL of tilvestamab, as the VL of m1; source: E. coli T7 expression strain, secreted, culture supernatant used directly; not shown: His6, C-terminal, kept) VH: EVQLVESGGGLVQPGGSLRLSCAASGYSFTAFYINWVRQAPGKGLEWVARIFPGGDNTYYNEKFKGRFTLSADTSKSTAYLQMNSLRAEDTAVYYCARRGLYYAMDYWGQGTLVTVSS VL: DIQMTQSPSSLSASVGDRVTITCRSSQSLVHSNGIPYLHWYQQKPGKAPKLLIYRVSNRFSGVPSRFSGSGSGTDFTLTISSLQPEDFATYYCSQGTHVPPTFGQGTKVEIK
binds | tilvestamab scFv-osmY M106A (scFv, V domains shown, VH of tilvestamab, as the VH of m1; numbers count on: the scFv-osmY fusion protein; linker; VL of tilvestamab, as the VL of m1; source: E. coli T7 expression strain, secreted, culture supernatant used directly; not shown: His6, C-terminal, kept) VH: EVQLVESGGGLVQPGGSLRLSCAASGYSFTDFYINWVRQAPGKGLEWVARIFPGGDNTYYNEKFKGRFTLSADTSKSTAYLQMNSLRAEDTAVYYCARRGLYYAADYWGQGTLVTVSS VL: DIQMTQSPSSLSASVGDRVTITCRSSQSLVHSNGIPYLHWYQQKPGKAPKLLIYRVSNRFSGVPSRFSGSGSGTDFTLTISSLQPEDFATYYCSQGTHVPPTFGQGTKVEIK
binds | tilvestamab scFv-osmY Y103A (scFv, V domains shown, VH of tilvestamab, as the VH of m1; numbers count on: the scFv-osmY fusion protein; linker; VL of tilvestamab, as the VL of m1; source: E. coli T7 expression strain, secreted, culture supernatant used directly; not shown: His6, C-terminal, kept) VH: EVQLVESGGGLVQPGGSLRLSCAASGYSFTDFYINWVRQAPGKGLEWVARIFPGGDNTYYNEKFKGRFTLSADTSKSTAYLQMNSLRAEDTAVYYCARRGLAYAMDYWGQGTLVTVSS VL: DIQMTQSPSSLSASVGDRVTITCRSSQSLVHSNGIPYLHWYQQKPGKAPKLLIYRVSNRFSGVPSRFSGSGSGTDFTLTISSLQPEDFATYYCSQGTHVPPTFGQGTKVEIK
binds | tilvestamab scFv-osmY L102A (scFv, V domains shown, VH of tilvestamab, as the VH of m1; numbers count on: the scFv-osmY fusion protein; linker; VL of tilvestamab, as the VL of m1; source: E. coli T7 expression strain, secreted, culture supernatant used directly; not shown: His6, C-terminal, kept) VH: EVQLVESGGGLVQPGGSLRLSCAASGYSFTDFYINWVRQAPGKGLEWVARIFPGGDNTYYNEKFKGRFTLSADTSKSTAYLQMNSLRAEDTAVYYCARRGAYYAMDYWGQGTLVTVSS VL: DIQMTQSPSSLSASVGDRVTITCRSSQSLVHSNGIPYLHWYQQKPGKAPKLLIYRVSNRFSGVPSRFSGSGSGTDFTLTISSLQPEDFATYYCSQGTHVPPTFGQGTKVEIK
binds | tilvestamab scFv-osmY Y191A (scFv, V domains shown, VH of tilvestamab, as the VH of m1; linker; VL of tilvestamab, as the VL of m1; numbers count on: the scFv-osmY fusion protein; source: E. coli T7 expression strain, secreted, culture supernatant used directly; not shown: His6, C-terminal, kept) VH: EVQLVESGGGLVQPGGSLRLSCAASGYSFTDFYINWVRQAPGKGLEWVARIFPGGDNTYYNEKFKGRFTLSADTSKSTAYLQMNSLRAEDTAVYYCARRGLYYAMDYWGQGTLVTVSS VL: DIQMTQSPSSLSASVGDRVTITCRSSQSLVHSNGIPYLHWYQQKPGKAPKLLIARVSNRFSGVPSRFSGSGSGTDFTLTISSLQPEDFATYYCSQGTHVPPTFGQGTKVEIK
binds | tilvestamab scFv-osmY G233A (scFv, V domains shown, VH of tilvestamab, as the VH of m1; linker; VL of tilvestamab, as the VL of m1; numbers count on: the scFv-osmY fusion protein; source: E. coli T7 expression strain, secreted, culture supernatant used directly; not shown: His6, C-terminal, kept) VH: EVQLVESGGGLVQPGGSLRLSCAASGYSFTDFYINWVRQAPGKGLEWVARIFPGGDNTYYNEKFKGRFTLSADTSKSTAYLQMNSLRAEDTAVYYCARRGLYYAMDYWGQGTLVTVSS VL: DIQMTQSPSSLSASVGDRVTITCRSSQSLVHSNGIPYLHWYQQKPGKAPKLLIYRVSNRFSGVPSRFSGSGSGTDFTLTISSLQPEDFATYYCSQATHVPPTFGQGTKVEIK
binds | tilvestamab scFv-osmY L102T (scFv, V domains shown, VH of tilvestamab, as the VH of m1; numbers count on: the scFv-osmY fusion protein; linker; VL of tilvestamab, as the VL of m1; source: E. coli T7 expression strain, secreted, culture supernatant used directly; not shown: His6, C-terminal, kept) VH: EVQLVESGGGLVQPGGSLRLSCAASGYSFTDFYINWVRQAPGKGLEWVARIFPGGDNTYYNEKFKGRFTLSADTSKSTAYLQMNSLRAEDTAVYYCARRGTYYAMDYWGQGTLVTVSS VL: DIQMTQSPSSLSASVGDRVTITCRSSQSLVHSNGIPYLHWYQQKPGKAPKLLIYRVSNRFSGVPSRFSGSGSGTDFTLTISSLQPEDFATYYCSQGTHVPPTFGQGTKVEIK
binds | tilvestamab scFv-osmY T31A (scFv, V domains shown, VH of tilvestamab, as the VH of m1; numbers count on: the scFv-osmY fusion protein; linker; VL of tilvestamab, as the VL of m1; source: E. coli T7 expression strain, secreted, culture supernatant used directly; not shown: His6, C-terminal, kept) VH: EVQLVESGGGLVQPGGSLRLSCAASGYSFADFYINWVRQAPGKGLEWVARIFPGGDNTYYNEKFKGRFTLSADTSKSTAYLQMNSLRAEDTAVYYCARRGLYYAMDYWGQGTLVTVSS VL: DIQMTQSPSSLSASVGDRVTITCRSSQSLVHSNGIPYLHWYQQKPGKAPKLLIYRVSNRFSGVPSRFSGSGSGTDFTLTISSLQPEDFATYYCSQGTHVPPTFGQGTKVEIK
